Reference: patent US20120214241

Tests used:
[1] = test system: SBS 30888 ZFN; experiment: cell_activity; details: paired with 30886 in G2019S heterozygous patient iPSC; pair more specific for G2019S mutant; value is % clones with monoallelic NHEJ (17% biallelic NHEJ)
[2] = test system: SBS 30886 ZFN; experiment: cell_activity; details: paired with 30888 in G2019S heterozygous patient iPSC; value is % clones with monoallelic NHEJ (17% biallelic NHEJ)

| Sequence | activity [1] [%] | activity [2] [%] |
| --- | --- | --- |
| GCAAAGATTGCTGACTACAGCATTGCTC (double strand) [LRRK2 6055G>A (G2019S) target of 30888] | 46 | – |
| TGATGGCAGCATTGGGATACAGTGTGAA (double strand) [LRRK2 target of 27865/27866/27867/27868/30886] | – | 46 |
